From US20110217237A1 (AbbVie / Abbott, published 2011)
Residue numbers refer to the chain shown, from its start.

B1: h1A11.H2 (antibody, V domains shown)
VH: EVQLVESGGGLVQPGGSLRLSCAASGFTFGNFPMSWVRQAPGKGLEWVASISSSDSWATIGDSVKGRFTISRDNAKNSLYLQMNSLRAEDTAVYYCARGYYNSPFAFWGQGTLVTVSS
VL: DIQMTQSPSSLSASVGDRVTITCRASQEIYRNLAWYQQKPGKSPKLLIFDTSVLADGVPSRFSGSGSGTDSTLTISSLQPEDFATYYCQQYTYYPPTFGQGTKLEIK
notes: also called h1A11.H2 VH / h1A11.E12 VL
B2: h1A11.A11 (antibody, V domains shown)
VH: EVQLVESGGGLVQPGGSLRLSCAASGFTFRHFPMAWVRQAPGKGLEWVATISSSDDWPNYRDSVKGRFTISRDNAKSSLYLQMNSLRAEDTAVYYCSRGYYNSPFAYWGQGTLVTVSS
VL: B1 VL with Q27E, E28D, R31S, S43A, F49Y, S52N, V53N, S71F, T92N, Y93N
notes: also called h1A11.A11 VH / h1A11VL.1
B3: h1A11.A8 (antibody, V domains shown)
VH: B1 VH with A97S, F107Y
VL: B1 VL with Q27E, E28D, R31S, S43A, F49Y, S52N, V53N, S71F, T92N, Y93N
notes: also called h1A11.A8 VH / h1A11VL.1
B4: h1A11.E12 (antibody, V domains shown)
VH: B2 VH with H31Y, S53G, D56E, S77N, S97A, Y107F
VL: B1 VL
notes: also called h1A11.E12 VH / h1A11.E12 VL

target: T1, cynomolgus monkey DLL4 extracellular domain (cynomolgus monkey); assay: SPR (Biacore)
T1 construct: extracellular domain; also called cynoDLL4 ECD; Cyno DLL4
Description: (§1) The BIACORE® surface plasmon resonance assay (Biacore, Inc., Piscataway, N.J., US) determines the affinity of antibodies with kinetic measurements of on-rate and off-rate constants. Binding of DLL4 antibodies to a purified recombinant DLL4 extracellular domain (ECD) was determined by surface plasmon resonance-based measurements with a Biacore® instrument (either a Biacore 2000, Biacore 3000, or Biacore T100; GE Healthcare, Piscataway, N.J., US) using running buffer HBS-EPB (10 mM HEPES [pH 7.4], 150 mM NaCl, 3 mM EDTA, 0.1 mg/ml BSA and 0.005% surfactant P20) at 25° C. For example, approximately 9000 RU of goat anti-human Fc specific polyclonal antibody (Thermo Fisher Scientific Inc., Rockford, Ill., US) diluted in 10 mM sodium acetate (pH 4.5) is directly immobilized across a CMS research grade biosensor chip using a standard amine coupling kit according to manufacturer's instructions and procedures at 25 μg/ml. Unreacted moieties on the biosensor surface were blocked with ethanolamine. For kinetic analysis, rate equations derived from the 1:1 Langmuir binding model were fitted simultaneously to multiple antigen injections (using global fit analysis) with the use of Scrubber 2 (BioLogic Software), Biacore Biaevaluation 4.0.1 software or Biacore T100 Evaluation software. Purified antibodies were diluted in running buffer for capture across goat anti-human Fc reaction surfaces. Antibodies to be captured as a ligand (1 μg/ml) were injected over reaction matrices at a flow rate of 10 μl/min. During the assay, all measurements were referenced against the capture surface alone (i.e., with no captured anti-DLL4 antibody). […] The equilibrium dissociation constant KD (M) of the reaction between antibodies and the target antigen was then calculated from the kinetic rate constants by the following formula: KD=Koff/Kₒₙ. Binding was recorded as a function of time and kinetic rate constants were calculated.

First: B1
Second: B2
The Kd of the first is 1.7-fold higher: 0.35 nM for the first, 0.2 nM for the second.

Going from B3 to B4, the Kd rises from 0.15 nM to 0.28 nM (1.9-fold).

B1 and B2 are within 1.5-fold of each other in koff: 4.6e-05 s⁻¹ for the first, 3.35e-05 s⁻¹ for the second.

First: B3
Second: B4
The koff of the first is 1.6-fold lower: 2.4e-05 s⁻¹ for the first, 3.84e-05 s⁻¹ for the second.

B1 and B2 are within 1.5-fold of each other in kon: 131000 M⁻¹ s⁻¹ for the first, 170000 M⁻¹ s⁻¹ for the second.

B3 and B4 are within 1.5-fold of each other in kon: 160000 M⁻¹ s⁻¹ for the first, 137000 M⁻¹ s⁻¹ for the second.

target: T2, human DLL4 extracellular domain (human, UniProt Q9NR61 27-529); assay: SPR (Biacore)
T2 construct: purified recombinant ECD; biotin-labelled or 6xHis-tagged depending on the assay; also called huDLL4 ECD; hu DLL4 ECD
T2 sequence (Q9NR61 27-529 limits assumed): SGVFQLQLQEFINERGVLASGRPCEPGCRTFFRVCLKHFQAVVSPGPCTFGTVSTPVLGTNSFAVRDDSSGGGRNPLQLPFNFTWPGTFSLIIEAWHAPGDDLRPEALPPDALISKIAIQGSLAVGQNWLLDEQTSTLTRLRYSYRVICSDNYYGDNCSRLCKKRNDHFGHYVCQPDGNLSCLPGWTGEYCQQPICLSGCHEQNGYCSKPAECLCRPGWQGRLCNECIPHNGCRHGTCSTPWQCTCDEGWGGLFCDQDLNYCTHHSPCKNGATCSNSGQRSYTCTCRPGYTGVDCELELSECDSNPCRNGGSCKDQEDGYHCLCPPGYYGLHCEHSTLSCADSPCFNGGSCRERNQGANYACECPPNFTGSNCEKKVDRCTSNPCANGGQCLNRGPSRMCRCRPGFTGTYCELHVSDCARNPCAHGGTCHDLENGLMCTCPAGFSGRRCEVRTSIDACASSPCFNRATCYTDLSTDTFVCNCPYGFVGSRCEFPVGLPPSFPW
Description: as §1

First: B1
Second: B2
The Kd of the first is 1.8-fold higher: 0.27 nM for the first, 0.15 nM for the second. The second binds more tightly here.

Going from B3 to B4, the Kd rises from 0.062 nM to 0.22 nM (3.5-fold). The first binds more tightly here.

B1 and B2 are within 1.5-fold of each other in koff: 3.85e-05 s⁻¹ for the first, 2.66e-05 s⁻¹ for the second.

Compared with B3, B4 is 3-fold higher in koff: 1.08e-05 s⁻¹ for the first, 3.26e-05 s⁻¹ for the second.

B1 and B2 are within 1.5-fold of each other in kon: 143000 M⁻¹ s⁻¹ for the first, 183000 M⁻¹ s⁻¹ for the second.

B3 and B4 are within 1.5-fold of each other in kon: 174000 M⁻¹ s⁻¹ for the first, 149000 M⁻¹ s⁻¹ for the second.

target: T3, human DLL4, full length, on cells (human, UniProt Q9NR61 27-685); assay: FACS, direct binding to DLL4 cells
T3 construct: also called huDLL4 cells; human DLL4-293G
T3 sequence (Q9NR61 27-685 limits assumed): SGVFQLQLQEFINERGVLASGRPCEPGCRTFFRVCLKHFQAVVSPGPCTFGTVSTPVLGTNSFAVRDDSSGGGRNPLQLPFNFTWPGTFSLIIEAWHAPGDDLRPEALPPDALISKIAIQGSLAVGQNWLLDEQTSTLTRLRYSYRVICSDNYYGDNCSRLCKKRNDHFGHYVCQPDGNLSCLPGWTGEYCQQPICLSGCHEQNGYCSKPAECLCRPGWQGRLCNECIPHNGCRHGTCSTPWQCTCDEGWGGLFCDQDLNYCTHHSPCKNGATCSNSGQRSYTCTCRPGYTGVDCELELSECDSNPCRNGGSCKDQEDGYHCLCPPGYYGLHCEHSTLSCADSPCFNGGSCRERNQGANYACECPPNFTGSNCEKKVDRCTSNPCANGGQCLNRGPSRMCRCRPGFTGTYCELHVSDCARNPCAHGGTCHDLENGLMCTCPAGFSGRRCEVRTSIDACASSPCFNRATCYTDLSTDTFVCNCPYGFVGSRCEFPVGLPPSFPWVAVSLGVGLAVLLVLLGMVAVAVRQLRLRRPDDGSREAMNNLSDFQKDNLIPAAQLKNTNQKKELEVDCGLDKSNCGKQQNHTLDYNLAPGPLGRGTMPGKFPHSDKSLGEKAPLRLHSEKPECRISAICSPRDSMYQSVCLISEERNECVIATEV
Description: (§2) Stable cell lines overexpressing cell-surface DLL4 were harvested from tissue culture flasks, washed four times and resuspended in phosphate buffered saline (PBS) containing 1% bovine serum albumin and 1 mM CaCl₂ (FACS buffer). 1.5×10⁵ cells were incubated with antibodies at various concentrations in FACS buffer for 60 minutes on ice. […] Following an incubation on ice (4° C., 60 minutes), cells were washed three times and resuspended in FACS buffer. Fluorescence was measured using a Becton Dickinson FACSCalibur-HTS (Becton Dickinson, San Jose, Calif., US). Data were analyzed using Graphpad Prism software and EC₅₀ values were reported as the concentration of antibody to achieve 50% of maximal DLL4 antibodies binding to DLL4 expressing cells.
(§3) The hu1A11.1 affinity matured clones (Table 22) were expressed, purified, and further characterized in vitro. Their activities of binding to cell-bound DLL4 and inhibiting cell-bound DLL4-induced Notch activation were further examined using methods described in Examples 1.3 and 1.6, and are summarized in Table 26 (below).

B1 and B2 are within 1.5-fold of each other in EC50: 1.98 nM for the first, 2.48 nM for the second.

Compared with B3, B4 is 3.2-fold lower in EC50: 3.16 nM for the first, 0.996 nM for the second.

target: T4, mouse DLL4 on cells (mouse, UniProt Q9JI71 27-686); assay: FACS, direct binding to DLL4 cells
T4 construct: whole, on cells; also called mouse DLL4-293G; mu DLL4 cells
T4 sequence (Q9JI71 27-686): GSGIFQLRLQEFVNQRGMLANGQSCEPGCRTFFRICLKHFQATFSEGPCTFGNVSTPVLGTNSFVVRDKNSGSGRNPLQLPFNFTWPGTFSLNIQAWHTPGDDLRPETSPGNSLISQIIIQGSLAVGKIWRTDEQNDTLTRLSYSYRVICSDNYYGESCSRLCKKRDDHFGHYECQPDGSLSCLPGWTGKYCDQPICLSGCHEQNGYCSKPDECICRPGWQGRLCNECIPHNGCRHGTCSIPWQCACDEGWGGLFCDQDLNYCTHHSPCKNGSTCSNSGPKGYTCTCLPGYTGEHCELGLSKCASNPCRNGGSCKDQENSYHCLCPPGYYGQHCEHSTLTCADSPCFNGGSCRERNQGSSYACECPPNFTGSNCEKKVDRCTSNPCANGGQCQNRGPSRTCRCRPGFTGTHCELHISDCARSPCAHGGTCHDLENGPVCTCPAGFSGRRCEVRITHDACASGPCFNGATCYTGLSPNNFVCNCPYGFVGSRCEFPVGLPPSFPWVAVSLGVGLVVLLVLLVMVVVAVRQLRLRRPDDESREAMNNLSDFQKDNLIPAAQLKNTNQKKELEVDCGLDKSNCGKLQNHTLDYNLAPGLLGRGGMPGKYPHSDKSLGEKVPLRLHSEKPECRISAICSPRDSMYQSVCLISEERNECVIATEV
Description: as §2, §3

B1 and B2 are within 1.5-fold of each other in EC50: 0.42 nM for the first, 0.5 nM for the second.

Compared with B3, B4 is 2.2-fold higher in EC50: 0.744 nM for the first, 1.61 nM for the second.

target: T3, human DLL4, full length, on cells; assay: cell-based or functional assay

B1 and B2 are within 1.5-fold of each other in “Inhibition of Notch Activation via DLL4 cells, Notch reporter assay” value (shortened to “Inhibition”): 0.856 nM for the first, 0.904 nM for the second.

Compared with B3, B4 is 6.4-fold lower in “Inhibition” value: 1.33 nM for the first, 0.208 nM for the second.

target: T4, mouse DLL4 on cells; assay: cell-based or functional assay

First: B1
Second: B2
The “Inhibition” value of the first is 2-fold lower: 0.586 nM for the first, 1.18 nM for the second.

First: B3
Second: B4
The “Inhibition” value of the first is 4.7-fold higher: 1.25 nM for the first, 0.266 nM for the second.

target: T5, rat DLL4 extracellular domain (rat, UniProt D3ZHH1 28-530); assay: SPR (Biacore)
T5 construct: extracellular domain; also called ratDLL4 ECD
T5 sequence (D3ZHH1 28-530): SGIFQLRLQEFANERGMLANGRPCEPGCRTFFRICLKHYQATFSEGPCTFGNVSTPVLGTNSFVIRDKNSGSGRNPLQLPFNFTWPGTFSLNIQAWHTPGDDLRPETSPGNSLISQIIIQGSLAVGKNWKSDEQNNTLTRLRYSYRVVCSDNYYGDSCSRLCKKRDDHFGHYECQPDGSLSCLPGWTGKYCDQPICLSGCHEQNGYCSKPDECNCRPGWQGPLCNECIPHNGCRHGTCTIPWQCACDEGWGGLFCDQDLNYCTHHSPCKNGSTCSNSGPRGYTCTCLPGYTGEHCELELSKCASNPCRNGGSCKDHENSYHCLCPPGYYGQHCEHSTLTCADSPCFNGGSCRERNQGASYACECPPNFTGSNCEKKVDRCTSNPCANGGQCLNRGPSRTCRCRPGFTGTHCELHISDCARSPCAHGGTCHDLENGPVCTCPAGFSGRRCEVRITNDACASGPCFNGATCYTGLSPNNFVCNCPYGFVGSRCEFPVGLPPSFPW
Description: as §1

Compared with B1, B2 is 1.8-fold lower in Kd: 16 nM for the first, 8.8 nM for the second. The second binds more tightly here.

First: B3
Second: B4
The Kd of the first is 29-fold higher: 47 nM for the first, 1.6 nM for the second.

Going from B1 to B2, the koff falls from 0.00283 s⁻¹ to 0.00102 s⁻¹ (2.8-fold).

Compared with B3, B4 is 37-fold lower in koff: 0.0065 s⁻¹ for the first, 0.000175 s⁻¹ for the second.

First: B1
Second: B2
The kon of the first is 1.5-fold higher: 178000 M⁻¹ s⁻¹ for the first, 116000 M⁻¹ s⁻¹ for the second.

B3 and B4 are within 1.5-fold of each other in kon: 139000 M⁻¹ s⁻¹ for the first, 108000 M⁻¹ s⁻¹ for the second.

target: T6, mouse DLL4 extracellular domain (mouse, UniProt Q9JI71 27-532); assay: SPR (Biacore)
T6 construct: extracellular domain; also called muDLL4 ECD; murine DLL4
T6 sequence (Q9JI71 27-532): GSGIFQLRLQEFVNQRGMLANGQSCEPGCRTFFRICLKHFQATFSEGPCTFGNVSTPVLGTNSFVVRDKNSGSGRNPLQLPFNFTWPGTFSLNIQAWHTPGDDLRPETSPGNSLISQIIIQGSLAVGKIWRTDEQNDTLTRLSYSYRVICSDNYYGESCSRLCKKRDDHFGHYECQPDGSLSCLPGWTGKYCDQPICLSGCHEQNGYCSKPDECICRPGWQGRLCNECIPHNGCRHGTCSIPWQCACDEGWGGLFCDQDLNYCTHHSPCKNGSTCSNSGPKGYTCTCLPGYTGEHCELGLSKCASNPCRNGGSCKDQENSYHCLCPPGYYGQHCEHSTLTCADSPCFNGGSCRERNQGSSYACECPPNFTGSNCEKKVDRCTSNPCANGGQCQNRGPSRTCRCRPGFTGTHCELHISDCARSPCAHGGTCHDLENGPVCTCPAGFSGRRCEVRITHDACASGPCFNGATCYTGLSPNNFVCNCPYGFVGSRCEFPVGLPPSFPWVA
Description: as §1

First: B1
Second: B2
The Kd of the first is 1.8-fold higher: 0.33 nM for the first, 0.18 nM for the second.

Going from B3 to B4, the Kd rises from 0.18 nM to 0.35 nM (1.9-fold).

B1 and B2 are within 1.5-fold of each other in koff: 5.07e-05 s⁻¹ for the first, 3.54e-05 s⁻¹ for the second.

Compared with B3, B4 is 1.7-fold higher in koff: 3.27e-05 s⁻¹ for the first, 5.44e-05 s⁻¹ for the second.

B1 and B2 are within 1.5-fold of each other in kon: 154000 M⁻¹ s⁻¹ for the first, 198000 M⁻¹ s⁻¹ for the second.

B3 and B4 are within 1.5-fold of each other in kon: 187000 M⁻¹ s⁻¹ for the first, 156000 M⁻¹ s⁻¹ for the second.
